{"source": "paper PMC8043444", "biological_target": "SARS-CoV-2 RBD WT for SPR binding assays (SARS-CoV-2) (UniProt P0DTC2)", "data": [{"substance": "S309 IgG1 (LS) (antibody)", "values": [{"measurement": "neutralisation of authentic SARS-CoV-2-Nluc on Vero E6 cells (IF/luc), IC50", "result": 78.9}, {"measurement": "neutralisation of authentic SARS-CoV-2-Nluc on Vero E6 cells (IF/luc), IC90", "result": 300}]}]}
